From article PMC2192648
Read-outs that look alike come from different tables or passages of the source.

Tests used:
Test in all cases: cross-linking + co-IP
[1] = molecular target: Vps35p (S. cerevisiae (endogenous in strain AHY63)) (UniProt P34110)
A-ALP (S. cerevisiae) [2] = molecular target: A-ALP (S. cerevisiae)
A-ALP (S. cerevisiae) [3] = molecular target: A-ALP (S. cerevisiae); remark: listed apart in the source
A-ALP (S. cerevisiae) [4] = molecular target: A-ALP (S. cerevisiae); remark: listed apart in the source

Molecule | percent of A-ALP immunoprecipitated by anti-Vps35p after cross-linking [1] [%] | percent of total Vps35p cross-linked (A-ALP (S. cerevisiae) [2]) [%] | percent of total Vps35p cross-linked (A-ALP (S. cerevisiae) [3]) [%] | percent of total Vps35p cross-linked (A-ALP (S. cerevisiae) [4]) [%]
A-ALP | 5 | – | – | –
Vps35p (natural protein) MAYADSPENAIAVIKQRTALMNRCLSQHKLMESLQHTSIMLTELRNPNLSPKKYYELYVIIFDSLTNLSTYLIENHPQNHHLADLYELVQYTGNVVPRLYLMITVGTSYLTFNEAPKKEILKDMIEMCRGVQNPIRGLFLRYYLSQRTKELLPEDDPSFNSQFIMNNFIEMNKLWVRLQHQGPLRERETRTRERKELQILVGSQLVRLSQIIDDNFQMYKQDILPTILEQVIQCRDLVSQEYLLDVICQVFADEFHLKTLDTLLQTTLHLNPDVSINKIVLTLVDRLNDYVTRQLEDDPNATSTNAYLDMDVFGTFWDYLTVLNHERPDLSLQQFIPLVESVIVLSLKWYPNNFDNLNKLFELVLQKTKDYGQKNISLESEHLFLVLLSFQNSKLQLTSSTTAPPNSPVTSKKHFIFQLISQCQAYKNILALQSISLQKKVVNEIIDILMDREVEEMADNDSESKLHPPGHSAYLVIEDKLQVQRLLSICEPLIISRSGPPANVASSDTNVDEVFFNRHDEEESWILDPIQEKLAHLIHWIMNTTSRKQTMKNKIQFSLEAQLEILLLIKSSFIKGGINVKYTFPAIITNFWKLMRKCRMIQEYLLKKRPDNKTLLSHYSNLLKQMFKFVSRCINDIFNSCNNSCTDLILKLNLQCAILADQLQLNEISYDFFSQAFTIFEESLSDSKTQLQALIYIAQSLQKTRSLYKEAYYDSLIVRCTLHGSKLLKKQDQCRAVYLCSHLWWATEISNIGEEEGITDNFYRDGKRVLECLQRSLRVADSIMDNEQSCELMVEILNRCLYYFIHGDESETHISIKYINGLIELIKTNLKSLKLEDNSASMITNSISDLHITGENNVKASSNADDGSVITDKESNVAIGSDGTYIQLNTLNGSSTLIRGVVATASGSKLLHQLKYIPIHHFRRTCEYIESQREVDDRFKVIYV | – | 16 | 26 | 10
